Measurements: patent publication US20140248278A1, “ANTI-CD22 ANTIGEN BINDING MOLECULES TO TREAT LUNG CANCER AND PROSTATE CANCER” (The Regents of the University of California, priority 2011, published 2014)

Legend:
[1] = test system: NSCLC lines (H1650, Calu-1, A549); assay: In vitro cytotoxicity assay, NSCLC lines; format: cell-based, human; conditions: after 48 hours
Method: (§1) FIGS. 2A-C illustrate anti-CD22 mediated cytotoxicity and CD22 internalization. (A) Ligation of CD22 mediates cytotoxicity of NSCLC and NHL B cells. Cells were treated with the anti-CD22 or anti-CD20 mAbs (HB22.7 or rituximab, respectively) (50 ug/ml) for 48 hr then assessed with an MTT assay. (B) Internalization of CD22 was assessed on NSCLC cell lines. The degree of internalization was determined by assessing the cytotoxicity of a carrier protein attached to an anti-mouse mAb (ZAP) compared to a non-cytotoxic control (SAP). HB22.7-ZAP and HB22.7-SAP were assessed in Ramos B-cells (top) and two NSCLC cell lines, A549 and H727 (bottom). […] PBMCs (10:1 PBMC:A549 ratio) were incubated +/− complement (1:10 dilution), or +/− huHB22.7 (50 μg/cc). A549-specific cytotoxicity was assessed with a DELFIA EuTDA cytotoxicity assay and reported as % of control.
(§2) Ramos, A549, or H1650 cells (2-2.5×10^4 per sample) were plated in triplicate in 96 well round bottom plates in a volume of 100 μL per well. Cells were treated for 1 hour with HB22.7, or rituximab to final concentrations of 25 μg/mL. Control cells received media only. […] Viability was assessed by trypan blue exclusion; experiments were done in triplicate and results were expressed as % of control (untreated cells) with the error bars representing the standard deviation.

Ramos NHL cells = assay: In vitro cytotoxicity assay, Ramos cells; format: cell-based, human; conditions: after 48 hours
Method: as §1, §2

Substance: rituximab: anti-CD20 control mAb
- cytotoxic response [1]: no cytotoxic response
- cytotoxic effects (Ramos NHL cells): cytotoxic effects
